# Test results published in patent US20140274782A1, “AFFINITY REAGENTS AND METHODS FOR DETECTION, PURIFICATION, AND PROTEOMIC ANALYSIS OF METHYLATED PROTEINS” (The Board of Trustees of the Leland Stanford Junior …, priority 2013, published 2014).
# T1: G9a and GLP (Homo sapiens, UniProt Q96KQ7+Q9H9B1)
# T1 sequence (Q96KQ7 2-1210 limits assumed): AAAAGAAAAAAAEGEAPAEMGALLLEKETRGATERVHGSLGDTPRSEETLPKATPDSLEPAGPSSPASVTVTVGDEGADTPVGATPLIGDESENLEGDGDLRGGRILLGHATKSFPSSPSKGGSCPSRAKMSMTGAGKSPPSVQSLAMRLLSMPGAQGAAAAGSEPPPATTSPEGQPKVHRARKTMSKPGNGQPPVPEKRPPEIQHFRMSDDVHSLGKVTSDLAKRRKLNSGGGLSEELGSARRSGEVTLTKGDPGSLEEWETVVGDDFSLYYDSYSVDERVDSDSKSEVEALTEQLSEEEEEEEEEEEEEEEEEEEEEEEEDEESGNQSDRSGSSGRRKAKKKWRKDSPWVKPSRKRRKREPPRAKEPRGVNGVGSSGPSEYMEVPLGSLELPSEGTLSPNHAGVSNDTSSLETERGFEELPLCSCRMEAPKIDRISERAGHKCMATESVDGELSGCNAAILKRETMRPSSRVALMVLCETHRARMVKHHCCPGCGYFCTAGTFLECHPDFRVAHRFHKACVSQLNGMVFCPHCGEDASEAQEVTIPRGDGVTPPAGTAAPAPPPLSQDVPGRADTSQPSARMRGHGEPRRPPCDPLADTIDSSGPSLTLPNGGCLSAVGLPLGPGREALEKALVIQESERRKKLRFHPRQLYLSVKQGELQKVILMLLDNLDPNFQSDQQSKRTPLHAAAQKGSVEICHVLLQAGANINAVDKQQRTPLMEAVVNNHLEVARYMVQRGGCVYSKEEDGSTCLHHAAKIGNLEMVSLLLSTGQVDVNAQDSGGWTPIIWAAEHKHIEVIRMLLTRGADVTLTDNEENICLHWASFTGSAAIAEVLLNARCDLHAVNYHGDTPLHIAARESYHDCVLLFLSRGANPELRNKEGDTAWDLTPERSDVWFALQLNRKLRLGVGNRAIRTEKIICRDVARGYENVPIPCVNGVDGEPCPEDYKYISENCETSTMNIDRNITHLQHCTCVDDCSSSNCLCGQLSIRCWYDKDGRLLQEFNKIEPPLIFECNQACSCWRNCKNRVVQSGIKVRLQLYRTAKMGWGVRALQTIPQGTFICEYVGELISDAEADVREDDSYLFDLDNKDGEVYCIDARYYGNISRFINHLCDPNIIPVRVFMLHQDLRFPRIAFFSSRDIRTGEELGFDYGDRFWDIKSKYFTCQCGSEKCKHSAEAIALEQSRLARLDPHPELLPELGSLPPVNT
# T1 sequence (Q9H9B1 2-1298 limits assumed): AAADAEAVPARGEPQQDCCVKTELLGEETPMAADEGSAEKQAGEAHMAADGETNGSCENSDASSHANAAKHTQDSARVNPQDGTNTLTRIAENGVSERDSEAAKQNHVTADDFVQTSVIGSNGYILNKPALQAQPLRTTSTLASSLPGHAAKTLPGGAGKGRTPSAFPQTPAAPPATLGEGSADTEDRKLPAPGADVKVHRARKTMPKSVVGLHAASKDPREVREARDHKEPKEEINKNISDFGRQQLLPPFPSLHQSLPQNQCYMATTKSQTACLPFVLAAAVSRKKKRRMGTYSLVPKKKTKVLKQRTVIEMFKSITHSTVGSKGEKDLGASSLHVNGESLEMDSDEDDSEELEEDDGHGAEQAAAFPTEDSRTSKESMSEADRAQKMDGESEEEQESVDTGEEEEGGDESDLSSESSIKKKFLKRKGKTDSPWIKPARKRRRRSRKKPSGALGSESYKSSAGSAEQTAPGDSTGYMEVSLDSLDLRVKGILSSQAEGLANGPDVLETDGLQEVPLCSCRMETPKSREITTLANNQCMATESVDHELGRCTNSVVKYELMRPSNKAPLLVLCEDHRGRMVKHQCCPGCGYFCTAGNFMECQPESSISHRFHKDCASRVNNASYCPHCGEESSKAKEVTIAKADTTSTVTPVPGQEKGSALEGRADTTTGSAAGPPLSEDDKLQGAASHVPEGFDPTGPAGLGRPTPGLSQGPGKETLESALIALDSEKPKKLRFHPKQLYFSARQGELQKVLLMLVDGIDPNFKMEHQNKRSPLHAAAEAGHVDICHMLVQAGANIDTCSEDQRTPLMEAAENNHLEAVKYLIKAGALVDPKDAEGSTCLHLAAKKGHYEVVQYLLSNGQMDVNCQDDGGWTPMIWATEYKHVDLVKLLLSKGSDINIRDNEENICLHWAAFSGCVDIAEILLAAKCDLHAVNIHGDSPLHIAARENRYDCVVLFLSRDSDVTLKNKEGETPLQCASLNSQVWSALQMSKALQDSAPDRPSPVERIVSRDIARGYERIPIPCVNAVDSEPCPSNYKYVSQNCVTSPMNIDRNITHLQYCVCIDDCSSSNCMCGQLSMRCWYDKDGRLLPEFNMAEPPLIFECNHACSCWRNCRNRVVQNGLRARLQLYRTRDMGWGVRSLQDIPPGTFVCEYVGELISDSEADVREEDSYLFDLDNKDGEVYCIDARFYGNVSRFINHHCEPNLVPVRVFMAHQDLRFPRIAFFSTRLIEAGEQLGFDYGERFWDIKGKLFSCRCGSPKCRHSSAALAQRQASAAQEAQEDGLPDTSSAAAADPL
# Tests used:
# 3×MBT domain of L3MBTL1 = test: Triple SILAC pull-down, 3xMBT/3xMBTD355N ratio (cytoplasmic, nuclear and chromatin fractions of 293T cells); assay type: binding, human; conditions: SILAC ratio, pull-down 3xMBT vs 3xMBTD355N; for 3xMBT/D355N UNC Heavy: experiment with UNC0638 in heavy SILAC media; for 3xMBT/D355N UNC Light: experiment with UNC0638 in light SILAC media;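 for all read-outs here: proteins quantified with MaxQuant, requiring at least two unique peptides and quantification in both label directions, normalized to the mean of proteins from a digested loading control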
# G9a and GLP = target: T1, G9a and GLP; test: Triple SILAC pull-down after UNC0638 treatment of 293T cells, DMSO/UNC0638 ratio of protein captured by 3×MBT; assay type: cell-based; parameters: cells were treated for 24 hours with UNC0638 at 2.5 μM or DMSO vehicle control; endogenous in cells; host or cells: HEK 293T; conditions: for Relative to UNC0638 UNC Heavy / Relative to UNC0638 UNC Light: SILAC ratio DMSO/UNC0638 of protein pulled down with 3xMBT; for Relative to UNC0638 UNC Heavy: UNC0638 in heavy SILAC media; for Relative to UNC0638 UNC Light: UNC0638 in light SILAC media; for Relative to UNC0638 Average: average of UNC Light and UNC Heavy experiments;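 for all read-outs here: mass spectrometry (Q-Exactive) SILAC quantitation, DMSO/UNC0638 ratio computed after subtracting 3×MBTD355N mutant pull-down background, only proteins with at least twofold 3×MBT over mutant signal considered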
Molecule,Relative to UNC0638 UNC Heavy (G9a and GLP),Relative to UNC0638 UNC Light (G9a and GLP),Relative to UNC0638 Average (G9a and GLP),3xMBT/D355N UNC Heavy (3×MBT domain of L3MBTL1),3xMBT/D355N UNC Light (3×MBT domain of L3MBTL1)
"HNRNPA2B1 (protein, UniProt P22626 1-353, looked up) Heterogeneous nuclear …: MEKTLETVPLERKKREKEQFRKLFIGGLSFETTEESLRNYYEQWGKLTDCVVMRDPASKRSRGFGFVTFSSMAEVDAAMAARPHSIDGRVVEPKRAVAREESGKPGAHVTVKKLFVGGIKEDTEEHHLRDYFEEYGKIDTIEIITDRQSGKKRGFGFVTFDDHDPVDKIVLQKYHTINGHNAEVRKALSRQEMQEVQSSRSGRGGNFGFGDSRGGGGNFGPGPGSNFRGGSDGYGSGRGFGDGYNGYGGGPGGGNFGGSPGYGGGRGGYGGGGPGYGNQGGGYGGGYDNYGGGNYGSGNYNDFGNYNQQPSNYGPMKSGNFGGSRNMGGPYGGGNYGPGGSGGSGGYGGRSRY",0.07 log base 2,0.28 log base 2,0.18 log base 2,3.43 log base 2,3.97 log base 2
"C20orf43 (protein, UniProt Q9BY42 1-306, looked up) Replication termination …: MGCDGGTIPKRHELVKGPKKVEKVDKDAELVAQWNYCTLSQEILRRPIVACELGRLYNKDAVIEFLLDKSAEKALGKAASHIKSIKNVTELKLSDNPAWEGDKGNTKGDKHDDLQRARFICPVVGLEMNGRHRFCFLRCCGCVFSERALKEIKAEVCHTCGAAFQEDDVIMLNGTKEDVDVLKTRMEERRLRAKLEKKTKKPKAAESVSKPDVSEEAPGPSKVKTGKPEEASLDSREKKTNLAPKSTAMNESSSGKAGKPPCGATKRSIADSEESEAYKSLFTTHSSAKRSKEESAHWVTHTSYCF",2.48 log base 2,−0.46 log base 2,1.01 log base 2,1.26 log base 2,0.71 log base 2
"HNRNPA3 (protein, UniProt P51991 1-378, looked up) Heterogeneous nuclear …: MEVKPPPGRPQPDSGRRRRRRGEEGHDPKEPEQLRKLFIGGLSFETTDDSLREHFEKWGTLTDCVVMRDPQTKRSRGFGFVTYSCVEEVDAAMCARPHKVDGRVVEPKRAVSREDSVKPGAHLTVKKIFVGGIKEDTEEYNLRDYFEKYGKIETIEVMEDRQSGKKRGFAFVTFDDHDTVDKIVVQKYHTINGHNCEVKKALSKQEMQSAGSQRGRGGGSGNFMGRGGNFGGGGGNFGRGGNFGGRGGYGGGGGGSRGSYGGGDGGYNGFGGDGGNYGGGPGYSSRGGYGGGGPGYGNQGGGYGGGGGYDGYNEGGNFGGGNYGGGGNYNDFGNYSGQQQSNYGPMKGGSFGGRSSGSPYGGGYGSGGGSGGYGSRRF",0.20 log base 2,0.16 log base 2,0.18 log base 2,2.96 log base 2,3.79 log base 2

# The next lines start with results.
Relative to UNC0638 UNC Heavy (G9a and GLP),Relative to UNC0638 UNC Light (G9a and GLP),Relative to UNC0638 Average (G9a and GLP),Molecule,3xMBT/D355N UNC Heavy (3×MBT domain of L3MBTL1),3xMBT/D355N UNC Light (3×MBT domain of L3MBTL1)
0.31 log base 2,0.04 log base 2,0.18 log base 2,"SNX9 (protein, UniProt Q9Y5X1 1-595, looked up) Sorting nexin-9: MATKARVMYDFAAEPGNNELTVNEGEIITITNPDVGGGWLEGRNIKGERGLVPTDYVEILPSDGKDQFSCGNSVADQAFLDSLSASTAQASSSAASNNHQVGSGNDPWSAWSASKSGNWESSEGWGAQPEGAGAQRNTNTPNNWDTAFGHPQAYQGPATGDDDDWDEDWDGPKSSSYFKDSESADAGGAQRGNSRASSSSMKIPLNKFPGFAKPGTEQYLLAKQLAKPKEKIPIIVGDYGPMWVYPTSTFDCVVADPRKGSKMYGLKSYIEYQLTPTNTNRSVNHRYKHFDWLYERLLVKFGSAIPIPSLPDKQVTGRFEEEFIKMRMERLQAWMTRMCRHPVISESEVFQQFLNFRDEKEWKTGKRKAERDELAGVMIFSTMEPEAPDLDLVEIEQKCEAVGKFTKAMDDGVKELLTVGQEHWKRCTGPLPKEYQKIGKALQSLATVFSSSGYQGETDLNDAITEAGKTYEEIASLVAEQPKKDLHFLMECNHEYKGFLGCFPDIIGTHKGAIEKVKESDKLVATSKITLQDKQNMVKRVSIMSYALQAEMNHFHSNRIYDYNSVIRLYLEQQVQFYETIAEKLRQALSRFPVM",2.60 log base 2,2.47 log base 2
0.63 log base 2,−0.28 log base 2,0.18 log base 2,"PRPF4 (protein, UniProt O43172 1-522, looked up) U4/U6 small nuclear …: MASSRASSTQATKTKAPDDLVAPVVKKPHIYYGSLEEKERERLAKGESGILGKDGLKAGIEAGNINITSGEVFEIEEHISERQAEVLAEFERRKRARQINVSTDDSEVKACLRALGEPITLFGEGPAERRERLRNILSVVGTDALKKTKKDDEKSKKSKEEYQQTWYHEGPNSLKVARLWIANYSLPRAMKRLEEARLHKEIPETTRTSQMQELHKSLRSLNNFCSQIGDDRPISYCHFSPNSKMLATACWSGLCKLWSVPDCNLLHTLRGHNTNVGAIVFHPKSTVSLDPKDVNLASCAADGSVKLWSLDSDEPVADIEGHTVRVARVMWHPSGRFLGTTCYDRSWRLWDLEAQEEILHQEGHSMGVYDIAFHQDGSLAGTGGLDAFGRVWDLRTGRCIMFLEGHLKEIYGINFSPNGYHIATGSGDNTCKVWDLRQRRCVYTIPAHQNLVTGVKFEPIHGNFLLTGAYDNTAKIWTHPGWSPLKTLAGHEGKVMGLDISSDGQLIATCSYDRTFKLWMAE",2.85 log base 2,2.26 log base 2
0.06 log base 2,0.29 log base 2,0.18 log base 2,"HNRNPD (protein, UniProt Q14103 2-355, looked up) Heterogeneous nuclear …: SEEQFGGDGAAAAATAAVGGSAGEQEGAMVAATQGAAAAAGSGAGTGGGTASGGTEGGSAESEGAKIDASKNEEDEGHSNSSPRHSEAATAQREEWKMFIGGLSWDTTKKDLKDYFSKFGEVVDCTLKLDPITGRSRGFGFVLFKESESVDKVMDQKEHKLNGKVIDPKRAKAMKTKEPVKKIFVGGLSPDTPEEKIREYFGGFGEVESIELPMDNKTNKRRGFCFITFKEEEPVKKIMEKKYHNVGLSKCEIKVAMSKEQYQQQQQWGSRGGFAGRARGRGGGPSQNWNQGYSNYWNQGYGNYGYNSQGYGGYGGYDYTGYNNYYGYGDYSNQQSGYGKVSRRGGHQNSYKPY",4.07 log base 2,4.56 log base 2
